Data from patent US20170342349A1, “STABILIZED ENZYME COMPOSITIONS” (NOVOZYMES A/S, priority 2014, published 2017).

Key:
[1] = biological target: Protease P (SEQ ID NO 5) variant G127S + G128P + G129S + Y130P + D131S + M134L; assay: Ki fitted from Suc-AAPF-pNA activity in Model B detergent; IF relative to SEQ ID NO 5
[2] = biological target: Protease P (SEQ ID NO 5) variant G128P; assay: as above
[3] = biological target: Protease P (SEQ ID NO 5) variant M103A; assay: as above
[4] = biological target: Protease P (SEQ ID NO 5) variant M103S; assay: as above
[5] = biological target: Protease P (SEQ ID NO 5) variant Q64F; assay: as above
[6] = biological target: Protease P (SEQ ID NO 5) variant Q64N; assay: as above
[7] = biological target: Protease C (SEQ ID NO 6) variant N60A (Lederbergia lenta (Bacillus lentus)) (UniProt P29600); assay: Ki fitted from Suc-AAPF-pNA activity in Model B detergent; IF relative to SEQ ID NO 6
[8] = biological target: Protease C (SEQ ID NO 6) variant N60F + S100I (Lederbergia lenta (Bacillus lentus)) (UniProt P29600); assay: as above
[9] = biological target: Protease C (SEQ ID NO 6) variant N60H (Lederbergia lenta (Bacillus lentus)) (UniProt P29600); assay: as above
[10] = biological target: Protease C (SEQ ID NO 6) variant S100I + Y166F (Lederbergia lenta (Bacillus lentus)) (UniProt P29600); assay: as above
[11] = biological target: Protease C (SEQ ID NO 6) variant V103A (Lederbergia lenta (Bacillus lentus)) (UniProt P29600); assay: as above
[12] = biological target: Protease C (SEQ ID NO 6) variant Y166F (Lederbergia lenta (Bacillus lentus)) (UniProt P29600); assay: as above
[13] = biological target: TY145 (SEQ ID NO 3) variant I150L + S173P + S175P; assay: Ki fitted from Suc-AAPF-pNA activity in Model B detergent; IF relative to SEQ ID NO 3 comprising S173P + S175P
Chain of TY145 (SEQ ID NO 3) variant I150L + S173P + S175P (chain, as listed by the source I150L S173P S175P I150L S173P S175P limits assumed): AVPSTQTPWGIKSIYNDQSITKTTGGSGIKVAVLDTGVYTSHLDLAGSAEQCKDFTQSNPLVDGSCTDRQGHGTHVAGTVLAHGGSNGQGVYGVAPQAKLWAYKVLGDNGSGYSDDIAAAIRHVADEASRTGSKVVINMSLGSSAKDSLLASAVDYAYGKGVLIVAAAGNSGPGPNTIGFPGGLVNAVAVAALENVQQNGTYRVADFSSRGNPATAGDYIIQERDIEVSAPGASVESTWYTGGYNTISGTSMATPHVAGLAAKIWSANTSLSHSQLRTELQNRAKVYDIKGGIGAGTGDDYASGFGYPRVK

[14] = biological target: TY145 (SEQ ID NO 3) variant Q70N + S173P + S175P; assay: as above
Chain of TY145 (SEQ ID NO 3) variant Q70N + S173P + S175P (chain, as listed by the source Q70N S173P S175P Q70N S173P S175P limits assumed): as the sequence (chain, as listed by the source I150L S173P S175P I150L S173P S175P limits assumed) above, with Q70N, L150I counted along it

[15] = biological target: TY145 (SEQ ID NO 3) variant S114V + I150L + S173P + S175P; assay: as above
Chain of TY145 (SEQ ID NO 3) variant S114V + I150L + S173P + S175P (chain, as listed by the source S114V I150L S173P S175P S114V I150L S173P S175P limits assumed): as the sequence (chain, as listed by the source I150L S173P S175P I150L S173P S175P limits assumed) above, with S114V counted along it

[16] = biological target: TY145 (SEQ ID NO 3) variant S114V + S173P + S175P; assay: as above
Chain of TY145 (SEQ ID NO 3) variant S114V + S173P + S175P (chain, as listed by the source S114V S173P S175P S114V S173P S175P limits assumed): as the sequence (chain, as listed by the source I150L S173P S175P I150L S173P S175P limits assumed) above, with S114V, L150I counted along it

[17] = biological target: TY145 (SEQ ID NO 3) variant G182A; assay: Ki fitted from Suc-AAPF-pNA activity at 8 inhibitor concentrations in Model B detergent; IF relative to SEQ ID NO 3
Chain of TY145 (SEQ ID NO 3) variant G182A (chain, as listed by the source G182A G182A limits assumed): as the sequence (chain, as listed by the source I150L S173P S175P I150L S173P S175P limits assumed) above, with L150I, P173S, P175S, G182A counted along it

[18] = biological target: TY145 (SEQ ID NO 3) variant I150N; assay: as above
[19] = biological target: TY145 (SEQ ID NO 3) variant I150S; assay: as above
Chain of TY145 (SEQ ID NO 3) variant I150S (chain, as listed by the source I150S I150S limits assumed): as the sequence (chain, as listed by the source I150L S173P S175P I150L S173P S175P limits assumed) above, with L150S, P173S, P175S counted along it

[20] = biological target: TY145 (SEQ ID NO 3) variant L184F; assay: as above
Chain of TY145 (SEQ ID NO 3) variant L184F (chain, as listed by the source L184F L184F limits assumed): as the sequence (chain, as listed by the source I150L S173P S175P I150L S173P S175P limits assumed) above, with L150I, P173S, P175S, L184F counted along it

[21] = biological target: TY145 (SEQ ID NO 3) variant L184Y; assay: as above
Chain of TY145 (SEQ ID NO 3) variant L184Y (chain, as listed by the source L184Y L184Y limits assumed): as the sequence (chain, as listed by the source I150L S173P S175P I150L S173P S175P limits assumed) above, with L150I, P173S, P175S, L184Y counted along it

[22] = biological target: TY145 (SEQ ID NO 3) variant Q70A; assay: as above
[23] = biological target: TY145 (SEQ ID NO 3) variant Q70F; assay: as above
[24] = biological target: TY145 (SEQ ID NO 3) variant Q70N; assay: as above
[25] = biological target: TY145 (SEQ ID NO 3) variant S111R; assay: as above
[26] = biological target: TY145 (SEQ ID NO 3) variant S114A; assay: as above
[27] = biological target: TY145 (SEQ ID NO 3) variant Y240R; assay: as above

## Inhibitor 1: Cbz-Gly-Ala-NHCH(CH2C6H4pOH)C(OH)(SO3Na)-H (peptide)
[1]
  IF (binding constant improvement factor, relative Ki): 1.05
[2]
  IF (binding constant improvement factor, relative Ki): 1.19
[3]
  IF (binding constant improvement factor, relative Ki): 2.31
[4]
  IF (binding constant improvement factor, relative Ki): 1.73
[5]
  IF (binding constant improvement factor, relative Ki): 3.44
[6]
  IF (binding constant improvement factor, relative Ki): 1.38
[7]
  IF (binding constant improvement factor, relative Ki): 1.22
[8]
  IF (binding constant improvement factor, relative Ki): 11.3
[9]
  IF (binding constant improvement factor, relative Ki): 1.24
[10]
  IF (binding constant improvement factor, relative Ki): 11.3
[11]
  IF (binding constant improvement factor, relative Ki): 1.49
[12]
  IF (binding constant improvement factor, relative Ki): 1.31
[13]
  IF (binding constant improvement factor, relative Ki): 2.05
[14]
  IF (binding constant improvement factor, relative Ki): 4.48
[15]
  IF (binding constant improvement factor, relative Ki): 6.14
[16]
  IF (binding constant improvement factor, relative Ki): 1.83
[17]
  IF (binding constant improvement factor, relative Ki): 1.86
[18]
  IF (binding constant improvement factor, relative Ki): 3.68
[19]
  IF (binding constant improvement factor, relative Ki): 4.94
[20]
  IF (binding constant improvement factor, relative Ki): 2.27
[21]
  IF (binding constant improvement factor, relative Ki): 4.47
[22]
  IF (binding constant improvement factor, relative Ki): 2.54
[23]
  IF (binding constant improvement factor, relative Ki): 8.53
[24]
  IF (binding constant improvement factor, relative Ki): 3.33
[25]
  IF (binding constant improvement factor, relative Ki): 1.11
[26]
  IF (binding constant improvement factor, relative Ki): 2.14
[27]
  IF (binding constant improvement factor, relative Ki): 1.19
